The source of these data is publication PMC11753425.

Test [1] has as its target full-length OrfG-A204C-A264C produced in S. thermophilus (Streptococcus thermophilus). In words: cross-linking; disulfide cross-linking of engineered cysteines in S. thermophilus; membrane fractions with or without DTT, SDS-PAGE, Western blot with Ab-G. (In western blotting, separated proteins are transferred to a membrane and probed.)
In test [2] the target is full-length OrfG-A204C-A264C (purified) (Streptococcus thermophilus). The experiment in a line: SEC-MALS; membrane proteins, Superose 6 10/300 Increase, 50 mM tris-HCl pH 8, 300 mM NaCl, 0.1% OGNG. (In general: SEC sorts molecules by how far they enter the pores of the column.)
Test [3] concerns the target OrfGExt (purified, WT) (Streptococcus thermophilus). In words: crystal structure; sitting drop, 20°C; WT in 1.26 M ammonium sulfate, 100 mM sodium cacodylate pH 6.5; A204C-A264C in 40% PEG 300, 100 mM potassium phosphate citrate pH 4.2.
For test [4], the target named is Orf13-V164C-Q280C (not stated (Tn916, an ICE widespread in Enterococcus faecalis and other firmicutes)). The experiment in a line: SEC-MALS; soluble proteins, Superdex 200 Increase, 50 mM tris-HCl, 100 mM NaCl, pH 8.
The target in test [5] is OrfGExt-A204C-A264C (Streptococcus thermophilus). The experiment in a line: crystal structure; sitting drop, 20°C; WT in 1.26 M ammonium sulfate, 100 mM sodium cacodylate pH 6.5; A204C-A264C in 40% PEG 300, 100 mM potassium phosphate citrate pH 4.2.
Test [6] has the same target. The experiment in a line: SEC-MALS; soluble proteins, Superdex 200 Increase, 50 mM tris-HCl, 100 mM NaCl, pH 8.

As for “full-length OrfG-A204C-A264C produced in S. thermophilus (natural protein)”, in test [1], the stoichiometry N – broadly, a count of units in the complex or per binding partner – was determined as 3.
In test [2], “full-length OrfG-A204C-A264C (purified) (natural protein)” displayed a stoichiometry N of 3.
The substance “OrfGExt (purified, WT) (domain or fragment)” returned a stoichiometry N in test [3] of 3.
For Orf13-V164C-Q280C (domain or fragment), the stoichiometry N in test [4] came to 3.
For the substance “OrfGExt-A204C-A264C (domain or fragment)”, the stoichiometry N in test [5] and in test [6] was 3 throughout.
